Eight molecules from patent publication US20200231693A1 (Janssen / Centocor, published 2020) can be followed below.

Data set [1] addresses T1, human FcγRIIB (NM_004001) (human, UniProt P31994 43-310).
T1 construct: also called FcγRIIB expressed on transfected Expi293F cells
T1 sequence: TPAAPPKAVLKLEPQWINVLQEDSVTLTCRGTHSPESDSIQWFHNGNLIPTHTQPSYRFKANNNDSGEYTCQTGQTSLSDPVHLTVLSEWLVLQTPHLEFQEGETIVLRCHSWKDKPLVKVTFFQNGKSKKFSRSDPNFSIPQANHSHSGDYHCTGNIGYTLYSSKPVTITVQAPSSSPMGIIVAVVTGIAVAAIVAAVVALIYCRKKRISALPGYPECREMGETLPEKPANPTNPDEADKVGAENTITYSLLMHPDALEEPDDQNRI
As to the kind of experiment: flow cytometry on Expi293F cells transfected with FcγRIIB. The procedure: (§1) Plasmids expressing cDNAs encoding human FcγRI (NM_000566) (SEQ ID NO: 59), FcγRIIA (NM_021642) (SEQ ID NO: 60), FcγRIIB (NM_004001) (SEQ ID NO: 61), and FcγRIIIA (NM_000569) (SEQ ID NO: 62) (Origene) were transiently transfected into Expi293F cells by Expifectmine293 transfection kit (Life Technologies). Flow cytometry assays were performed 48 h after transfection.
(§2) 2×10⁵ cells per well were seeded in 96-well plate and blocked in BSA Stain Buffer (BD Biosciences, San Jose, USA) for 30 min at 4° C. Cells were incubated with test antibody on ice for 1.5 hour at 4° C. After being washed twice with BSA stain buffer, the cells were incubated with R-PE labeled anti-human or anti-mouse IgG secondary antibody (Jackson Immunoresearch Laboratories) for 45 min at 4° C. The cells were washed twice in stain buffer and then resuspended in 150 μL of Stain Buffer containing 1:200 diluted DRAQ7 live/dead stain (Cell Signaling Technology, Danvers, USA). PE and DRAQ7 signals of the stained cells were detected by Miltenyi MACSQuant flow cytometer (Miltenyi Biotec, Auburn, USA) using B2 and B4 channel respectively. Live cells were gated on DRAQ7 exclusion and the geometric mean fluorescence signals were determined for at least 10,000 live events collected. FlowJo software (Tree Star) was used for analysis. Data was plotted as the logarithm of antibody concentration versus mean fluorescence signals. Nonlinear regression analysis was performed by GraphPad Prism 6 (GraphPad Software, Inc.) and EC₅₀ values were calculated.

A further data set deals with T2, human OX40 (CD134) (human, UniProt P43489 29-277).
T2 construct: also called HEK-Blue: OX40 cells; transfected OX40 receptor
T2 sequence: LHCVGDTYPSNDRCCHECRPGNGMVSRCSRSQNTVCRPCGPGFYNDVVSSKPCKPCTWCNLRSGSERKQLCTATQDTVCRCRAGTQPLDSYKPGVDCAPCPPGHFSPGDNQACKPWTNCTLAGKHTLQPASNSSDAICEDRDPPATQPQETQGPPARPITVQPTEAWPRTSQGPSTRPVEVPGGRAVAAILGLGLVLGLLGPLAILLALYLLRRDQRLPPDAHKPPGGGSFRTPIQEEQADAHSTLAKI
As to the kind of experiment: NanoBRET PPI assay on HEK-Blue: OX40 cells (discussion). Here is the method:
The next day, equal concentrations of Nanoluc-tagged antibody (donor) and Halotag-tagged antibody (acceptor) in 50 μl assay medium (Opti-MEM I reduced serum medium, no phenol red plus 4% FBS) were applied to the cells. Halotag 618 ligand diluted 1:1000 in 50 μl assay medium were added in experimental well, and a no ligand control well was also set up by diluting DMSO 1:1000 in assay medium. After incubation at 37° C. for 30 min, the cells were washed twice with assay medium and resuspended in 100 μl assay medium. 25 μl Nano-Glo substrate, diluted 1:200 in assay medium without FBS, was added to each well. After shaking for 30 seconds, the donor emission (460 nm) and acceptor emission (618 nm) were measured by Envision. Raw NanoBRET ratio values with milliBRET units (mBU) were calculated as RawBRET=618 nmEm/460 nmEm*1000. To factor in donor-contributed background or bleed through, Corrected NanoBRET ratio values with milliBRET units was calculated as CorrectedBRET=RawBRETₑₓₚₑᵣᵢₘₑₙₜₐₗ sample−RawBRET_{no-ligand control sample}, which reflects energy transfer from a bioluminescent protein donor to a fluorescent protein acceptor due to protein-protein interactions.
To evaluate whether the engineered antibodies multimerize upon binding antigens at the cell surface a NanoBRET™ protein-protein interaction (PPI) assay was conducted. This assay is a proximity-based assay that detects protein-protein interactions by measuring energy transfer from a bioluminescent protein donor to a fluorescent protein acceptor. […] NanoBRET PPI assays were performed by applying the donor and acceptor antibodies to HEK-Blue: OX40 cells and the calculated corrected NanoBRET ratios reflect the association of multimerized antibody.

The next data set deals with human FcγRI (NM_000566) (human, UniProt P12314 16-374). As to the kind of experiment: flow cytometry on Expi293F cells transfected with FcγRI. Here is the method:
as §1
as §2, with “The cells were washed twice in stain buffer and then resuspended in 150 μL of Stain Buffer containing 1:200 diluted DRAQ7 live/dead stain (Cell Signaling Technology, Danvers, USA).” left out, “FlowJo software (Tree Star) was used for analysis.” left out

Data set [2] deals with the molecule itself. The data set is described as follows: SEC, self-association in solution.
Data set [3] concerns the target human FcγRIIIA (NM_000569) (human, UniProt P08637 17-254). As to the kind of experiment: flow cytometry on Expi293F cells transfected with FcγRIIIA. Here is the method:
as §1, §2

The next data set has as its target T3, FcγRIIB on Raji cells (human, UniProt P31994 43-310).
T3 sequence (looked up): T1 sequence
As to the kind of experiment: cell-based or functional assay.

Data set [4] addresses T1, human FcγRIIB (NM_004001). The data set is described as follows: binding to transfected Expi293F cells (data not shown).
The target of data set [5] is T4, human FcγRIIA (NM_021642) (human, UniProt P12318 36-317).
T4 construct: also called FcγRIIA^R131; R131 allotype of FcγRIIA
T4 sequence: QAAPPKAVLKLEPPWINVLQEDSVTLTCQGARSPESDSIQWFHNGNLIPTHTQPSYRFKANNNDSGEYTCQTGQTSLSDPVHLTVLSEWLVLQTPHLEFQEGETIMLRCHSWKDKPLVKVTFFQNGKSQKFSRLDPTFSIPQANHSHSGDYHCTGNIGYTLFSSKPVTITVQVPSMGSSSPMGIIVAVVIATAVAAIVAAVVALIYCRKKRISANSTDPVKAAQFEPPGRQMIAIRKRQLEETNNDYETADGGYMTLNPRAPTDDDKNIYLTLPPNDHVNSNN
The data set is described as follows: flow cytometry on Expi293F cells transfected with FcγRIIA (R131 allotype per text). The procedure: as §1
as §2, with “The cells were washed twice in stain buffer and then resuspended in 150 μL of Stain Buffer containing 1:200 diluted DRAQ7 live/dead stain (Cell Signaling Technology, Danvers, USA).” left out, “FlowJo software (Tree Star) was used for analysis.” left out

Chain of human FcγRIIIA (NM_000569) (P08637 17-254 limits assumed): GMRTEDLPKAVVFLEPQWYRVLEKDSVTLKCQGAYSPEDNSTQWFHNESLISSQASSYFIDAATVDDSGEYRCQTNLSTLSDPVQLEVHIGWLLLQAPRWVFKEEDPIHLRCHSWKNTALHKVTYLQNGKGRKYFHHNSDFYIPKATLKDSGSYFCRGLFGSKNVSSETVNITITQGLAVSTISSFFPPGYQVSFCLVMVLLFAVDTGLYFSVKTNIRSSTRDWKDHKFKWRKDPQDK
Chain of human FcγRI (NM_000566) (P12314 16-374 limits assumed): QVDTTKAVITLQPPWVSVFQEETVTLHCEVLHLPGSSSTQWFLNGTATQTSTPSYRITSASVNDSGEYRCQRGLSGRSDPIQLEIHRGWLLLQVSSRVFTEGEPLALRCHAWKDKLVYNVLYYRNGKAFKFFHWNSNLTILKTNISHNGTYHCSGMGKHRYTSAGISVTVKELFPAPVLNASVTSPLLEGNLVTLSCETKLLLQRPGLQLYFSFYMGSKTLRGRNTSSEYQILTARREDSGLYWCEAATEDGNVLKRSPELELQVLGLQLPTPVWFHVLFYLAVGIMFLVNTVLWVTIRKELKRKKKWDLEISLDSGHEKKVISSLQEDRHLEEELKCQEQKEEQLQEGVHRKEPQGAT

B1: anti-FcγRIIB antibody 2B6 (antibody)
chain 1: QVQLQQPVTELVRPGASVMLSCKASDYPFTNYWIHWVKQRPGQGLEWIGVIDPSDTYPNYNKKFKGKATLTVVVSSSTAYMQLSSLTSDDSAVYYCARNGDSDYYSGMDYWGQGTSVTVSS
chain 2: DILLTQSPAILSVSPGERVSFSCRTSQSIGTNIHWYQQRTNGFPRLLIKNVSESISGIPSRFSGSGSGTDFILSINSVESEDIADYYCQQSNTWPFTFGGGTKLEIK
In data set [1], B1 registered an EC50 of 0.431 µg/mL.

B2: OX40SF2IgG1E345R/E430G (antibody)
heavy: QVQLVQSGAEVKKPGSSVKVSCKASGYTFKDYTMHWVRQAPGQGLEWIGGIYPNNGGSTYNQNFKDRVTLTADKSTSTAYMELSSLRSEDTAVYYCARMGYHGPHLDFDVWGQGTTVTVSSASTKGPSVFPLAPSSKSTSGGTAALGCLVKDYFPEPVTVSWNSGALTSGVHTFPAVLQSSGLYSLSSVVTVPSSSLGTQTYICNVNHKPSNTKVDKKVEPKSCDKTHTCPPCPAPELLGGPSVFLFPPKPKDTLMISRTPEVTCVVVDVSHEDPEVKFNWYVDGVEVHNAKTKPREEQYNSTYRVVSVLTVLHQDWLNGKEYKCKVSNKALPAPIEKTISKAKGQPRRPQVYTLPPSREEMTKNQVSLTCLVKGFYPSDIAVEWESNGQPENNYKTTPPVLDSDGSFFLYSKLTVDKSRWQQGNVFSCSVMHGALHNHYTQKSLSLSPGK
VL: DIQMTQSPSSLSASVGDRVTITCKASQDVGAAVAWYQQKPGKAPKLLIYWASTRHTGVPSRFSGSGSGTDFTLTISSLQPEDFATYYCQQYINYPLTFGGGTKVEIK
notes: Full IgG1; In the NanoBRET assay the light chains carried a C-terminal Nanoluc or HaloTag
As for B2, in the data set with human OX40 (CD134), the binding result is “binds”.

B3: OX40SF2IgG1 (antibody)
heavy: not shown
VL: B2 VL
notes: Full IgG1, wild-type Fc; also called SF2 antibody with native human IgG1 Fc; wild-type IgG1
B3: the EC50 came to 0.326 µg/mL in the data set with human FcγRI (NM_000566) and 0.744 µg/mL in data set [3]. For the same molecule, in data set [2], the binding result was “no binding”.

B4: OX40SF2IgG1E345R (antibody)
heavy: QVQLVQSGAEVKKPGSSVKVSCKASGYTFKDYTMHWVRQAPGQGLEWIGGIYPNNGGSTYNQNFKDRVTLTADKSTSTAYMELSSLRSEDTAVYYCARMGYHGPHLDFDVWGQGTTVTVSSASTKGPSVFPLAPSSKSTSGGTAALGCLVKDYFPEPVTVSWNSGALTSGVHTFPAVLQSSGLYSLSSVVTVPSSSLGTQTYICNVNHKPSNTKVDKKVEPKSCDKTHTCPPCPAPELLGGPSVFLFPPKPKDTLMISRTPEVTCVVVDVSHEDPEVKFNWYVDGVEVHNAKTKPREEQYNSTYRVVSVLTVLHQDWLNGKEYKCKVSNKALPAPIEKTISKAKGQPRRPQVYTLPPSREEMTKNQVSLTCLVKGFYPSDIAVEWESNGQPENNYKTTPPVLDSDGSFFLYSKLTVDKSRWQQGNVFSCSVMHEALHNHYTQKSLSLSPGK
VL: B2 VL
notes: as for B2
As to B4, the “HEK-Blue NFκB reporter assay, co-culture with Raji cells against no Raji cells” value in the data set with FcγRIIB on Raji cells is greater than 2 fold. For the same molecule, the binding result with human OX40 (CD134) was “binds”.

B5: OX40SF2IgG1E345R/E430G/S440Y (antibody)
heavy: QVQLVQSGAEVKKPGSSVKVSCKASGYTFKDYTMHWVRQAPGQGLEWIGGIYPNNGGSTYNQNFKDRVTLTADKSTSTAYMELSSLRSEDTAVYYCARMGYHGPHLDFDVWGQGTTVTVSSASTKGPSVFPLAPSSKSTSGGTAALGCLVKDYFPEPVTVSWNSGALTSGVHTFPAVLQSSGLYSLSSVVTVPSSSLGTQTYICNVNHKPSNTKVDKKVEPKSCDKTHTCPPCPAPELLGGPSVFLFPPKPKDTLMISRTPEVTCVVVDVSHEDPEVKFNWYVDGVEVHNAKTKPREEQYNSTYRVVSVLTVLHQDWLNGKEYKCKVSNKALPAPIEKTISKAKGQPRRPQVYTLPPSREEMTKNQVSLTCLVKGFYPSDIAVEWESNGQPENNYKTTPPVLDSDGSFFLYSKLTVDKSRWQQGNVFSCSVMHGALHNHYTQKYLSLSPGK
VL: B2 VL
notes: In the NanoBRET assay the light chains carried a C-terminal Nanoluc or HaloTag; also called OX40SF2E345R/E430G/S440Y
Consider B5, for which the binding result in data set [2] and in data set [4] was “binds” in each case.

B6: OX40SF2IgG1E430G (antibody)
heavy: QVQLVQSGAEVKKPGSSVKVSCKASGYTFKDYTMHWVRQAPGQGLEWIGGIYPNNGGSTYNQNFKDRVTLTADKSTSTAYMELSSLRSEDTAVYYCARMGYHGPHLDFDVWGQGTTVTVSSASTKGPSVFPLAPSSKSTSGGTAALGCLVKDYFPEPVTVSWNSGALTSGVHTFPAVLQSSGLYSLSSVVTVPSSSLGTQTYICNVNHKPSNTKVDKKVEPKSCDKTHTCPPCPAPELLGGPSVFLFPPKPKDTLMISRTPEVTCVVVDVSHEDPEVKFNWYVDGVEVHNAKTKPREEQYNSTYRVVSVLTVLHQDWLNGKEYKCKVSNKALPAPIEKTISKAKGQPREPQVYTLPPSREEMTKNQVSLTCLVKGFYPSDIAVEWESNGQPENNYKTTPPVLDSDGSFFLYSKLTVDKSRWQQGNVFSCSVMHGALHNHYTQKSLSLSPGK
VL: B2 VL
notes: as for B2
On to B6, for which the binding result with human OX40 (CD134) is recorded as “binds”.

B7: OX40SF2IgG1S267E/L328F (antibody, name in EU numbering)
heavy: not shown
VL: B2 VL
notes: Full IgG1; Positions are EU Index, not positions on the UniProt entry
Turning to B7, in the data set with FcγRIIB on Raji cells, the “HEK-Blue NFκB reporter assay, co-culture with Raji cells; efficacy at 1000 ng/ml against OX40 ligand at the same concentration” value is greater than 2 fold. Further, the results for the concentration for a half-maximal effect (EC50) in data set [5] and in data set [1] were 0.216 µg/mL and 0.459 µg/mL, respectively. Moreover, the “fold better potency (against OX40SF2IgG1, reference implied)” value in data set [5] was 20 fold. The binding result in data set [3] is reported as “no binding (tested: 1 ng/ml to 10000 ng/ml)”.

B8: OX40SF2IgG1V12 (antibody, name in EU numbering)
heavy: QVQLVQSGAEVKKPGSSVKVSCKASGYTFKDYTMHWVRQAPGQGLEWIGGIYPNNGGSTYNQNFKDRVTLTADKSTSTAYMELSSLRSEDTAVYYCARMGYHGPHLDFDVWGQGTTVTVSSASTKGPSVFPLAPSSKSTSGGTAALGCLVKDYFPEPVTVSWNSGALTSGVHTFPAVLQSSGLYSLSSVVTVPSSSLGTQTYICNVNHKPSNTKVDKKVEPKSCDKTHTCPPCPAPDLLGDDSVFLFPPKPKDTLMISRTPEVTCVVVDVSDEDGEVKFNWYVDGVEVHNAKTKPREEQYNSTYRVVSVLTVLHQDWLNGKEYKCKVSNKALPRPIEKTISKAKGQPREPQVYTLPPSRDELTKNQVSLTCLVKGFYPSDIAVEWESNGQPENNYKTTPPVLDSDGSFFLYSKLTVDKSRWQQGNVFSCSVMHEALHNHYTQKSLSLSPGK
VL: B2 VL
notes: Full IgG1; Positions are EU Index
In the case of B8, the “HEK-Blue NFκB reporter assay, co-culture with Raji cells; efficacy at 1000 ng/ml against OX40 ligand at the same concentration” value with FcγRIIB on Raji cells is greater than 2 fold. In data set [3], the binding result is on record as “no binding (tested: 1 ng/ml to 10000 ng/ml)”. In addition, in data set [1], the response was half-maximal at 0.502 µg/mL (EC50).
